Test results as given in publication PMC8496732, “RAB33B recruits the ATG16L1 complex to the phagophore via a noncanonical RAB binding protein” (Autophagy, 2020).

T1: RAB33B wild type, 6xHis, labeled with Tide Fluor 3 (human, UniProt Q9H082 1-229, labeled with Tide Fluor 3 (TF3) maleimide)
T1 construct: RAB33B, human; Loaded with GppNHp or GDP by nucleotide exchange; The crystal construct is 30–218; also called WT^GppNHp; WT^GDP
T1 sequence (looked up): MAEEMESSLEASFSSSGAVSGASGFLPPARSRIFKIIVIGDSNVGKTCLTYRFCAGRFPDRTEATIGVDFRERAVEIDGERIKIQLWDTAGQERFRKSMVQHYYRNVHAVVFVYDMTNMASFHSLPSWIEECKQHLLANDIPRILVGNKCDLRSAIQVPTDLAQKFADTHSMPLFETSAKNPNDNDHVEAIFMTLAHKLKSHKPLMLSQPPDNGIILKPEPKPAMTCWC

T2: RAB33B I66A, 6xHis, labeled with Tide Fluor 3 (human, UniProt Q9H082 1-229, I66A, labeled with Tide Fluor 3 (TF3) maleimide)
T2 construct: RAB33B, human, I66A; also called I66A^GppNHp
T2 sequence (looked up): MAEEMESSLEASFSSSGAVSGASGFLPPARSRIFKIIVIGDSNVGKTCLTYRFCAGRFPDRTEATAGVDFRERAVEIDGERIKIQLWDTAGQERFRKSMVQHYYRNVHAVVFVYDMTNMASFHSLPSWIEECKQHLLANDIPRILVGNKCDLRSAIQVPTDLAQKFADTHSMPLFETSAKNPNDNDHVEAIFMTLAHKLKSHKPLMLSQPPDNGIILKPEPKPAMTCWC

T3: RAB33B F95A, 6xHis, labeled with Tide Fluor 3 (human, UniProt Q9H082 1-229, F95A, labeled with Tide Fluor 3 (TF3) maleimide)
T3 construct: RAB33B, human, F95A; also called F95A^GppNHp
T3 sequence (looked up): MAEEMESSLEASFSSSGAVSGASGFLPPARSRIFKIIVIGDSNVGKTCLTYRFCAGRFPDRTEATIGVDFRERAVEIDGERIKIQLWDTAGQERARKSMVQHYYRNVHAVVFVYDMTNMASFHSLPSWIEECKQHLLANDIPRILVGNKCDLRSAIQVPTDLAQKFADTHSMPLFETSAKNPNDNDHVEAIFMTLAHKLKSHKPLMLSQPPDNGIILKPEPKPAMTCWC

T4: RAB33B K35A, 6xHis, labeled with Tide Fluor 3 (human, UniProt Q9H082 1-229, K35A, labeled with Tide Fluor 3 (TF3) maleimide)
T4 construct: RAB33B, human, K35A; also called K35A^GppNHp
T4 sequence (looked up): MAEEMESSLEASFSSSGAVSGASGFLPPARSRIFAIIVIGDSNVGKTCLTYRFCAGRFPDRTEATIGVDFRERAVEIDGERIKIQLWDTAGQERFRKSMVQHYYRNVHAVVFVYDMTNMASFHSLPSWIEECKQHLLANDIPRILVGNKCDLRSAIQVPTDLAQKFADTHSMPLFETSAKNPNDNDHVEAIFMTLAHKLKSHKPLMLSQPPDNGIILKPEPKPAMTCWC


How the values were obtained:
Conditions in all cases: both partners purified
[1] = molecular target: T1, RAB33B wild type, 6xHis, labeled with …; assay: MST; TF3-labeled RAB33B at 10 μM, GDP-bound; unlabeled ATG16L1(141–265) titrated from 400 μM to 12 nM; 20 mM HEPES pH 7.2, 25 mM NaCl, 2 mM DTE, 2 mM MgCl2, 0.05% Tween 20, 10 µM GDP
[2] = molecular target: T2, RAB33B I66A, 6xHis, labeled with Tide …; assay: MST; TF3-labeled RAB33B at 10 μM, GppNHp-bound; unlabeled ATG16L1(141–265) titrated from 400 μM to 12 nM; 20 mM HEPES pH 7.2, 25 mM NaCl, 2 mM DTE, 2 mM MgCl2, 0.05% Tween 20, 10 µM GppNHp
[3] = molecular target: T1, RAB33B wild type, 6xHis, labeled with …; assay: as above
[4] = molecular target: T3, RAB33B F95A, 6xHis, labeled with Tide …; assay: as above
[5] = molecular target: T4, RAB33B K35A, 6xHis, labeled with Tide …; assay: as above

Binder | Kd [1] | Kd [2] | Kd [3] | Kd [4] | Kd [5]
ATG16L1(141–265) wild type, expressed separately (domain or fragment, UniProt Q8C0J2 141-265, looked up, pOPIN vector with GST tag; also called WT) LETNCLDLRTKLQDLEVANQTLKDEYDALQITFTALEEKLRKTTEENQELVTRWMAEKAQEANRLNAENEKDSRRRQARLQKELAEAAKEPLPVEQDDDIEVIVDETSDHTEETSPVRAVSRAAT | 0.213 µM | 25.9 µM | 0.095 µM | 17.1 µM | > 100 µM
ATG16L1(141–265) N206A (domain or fragment, UniProt Q8C0J2 141-265, looked up) LETNCLDLRTKLQDLEVANQTLKDEYDALQITFTALEEKLRKTTEENQELVTRWMAEKAQEANRLAAENEKDSRRRQARLQKELAEAAKEPLPVEQDDDIEVIVDETSDHTEETSPVRAVSRAAT |  |  | 3.38 µM |  | 

The next lines start with the values.

Kd [1] | Kd [2] | Kd [3] | Kd [4] | Kd [5] | Binder
 |  | 0.884 µM |  |  | ATG16L1(141–265) N209A (domain or fragment, UniProt Q8C0J2 141-265, looked up) LETNCLDLRTKLQDLEVANQTLKDEYDALQITFTALEEKLRKTTEENQELVTRWMAEKAQEANRLNAEAEKDSRRRQARLQKELAEAAKEPLPVEQDDDIEVIVDETSDHTEETSPVRAVSRAAT
 |  | 24.1 µM |  |  | ATG16L1(141–265) N206A,N209A (domain or fragment, UniProt Q8C0J2 141-265, looked up) LETNCLDLRTKLQDLEVANQTLKDEYDALQITFTALEEKLRKTTEENQELVTRWMAEKAQEANRLAAEAEKDSRRRQARLQKELAEAAKEPLPVEQDDDIEVIVDETSDHTEETSPVRAVSRAAT
